Experimental data published in IntAct's records for PubMed 17690245.

Legend:
ccnt1_human CCNT1 = ccnt1_human CCNT1 (UniProt O60563)
cdk9_human CDK9 = cdk9_human CDK9 (UniProt P50750)

Bromodomain-containing protein 4 (Homo sapiens) (from UniProt O60885-1) R1337P
effect of a mutation on the interaction (ccnt1_human CCNT1): disrupting interaction | effect of a mutation on the interaction (cdk9_human CDK9): disrupting interaction
